Results from the supplement of paper PMC12636428.

Tested on: Saccharomyces cerevisiae
Experiment: transcriptional activation domain activity (GFP:mCherry ratio, weighted mean of sorted bins, harmonized to initial dataset scale) (arbitrary fluorescence ratio units); higher = stronger transcriptional activation
Conditions: beta-estradiol 1 µM; induction time 4 h
Procedure: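 53-aa protein tiles (fungal proteins plus yeast TF control tiles) fused C-terminally to a DBD-estrogen-binding domain-mCherry synthetic TF, integrated in S. cerevisiae (URA3 locus) with a GFP reporter. Cells were induced with 1 uM beta-estradiol for 4 h at 30 C, FACS-sorted into 8 bins by GFP:mCherry ratio and barcodes sequenced. Activity is the read-weighted mean bin fluorescence (GFP:mCherry), averaged over barcodes (median 12); tiles under 50 reads were discarded. New active-learning values were harmonized by linear fit onto the scale of the initial (Hummel et al.) dataset. The assay saturates at low and high signal.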

Sequence	transcriptional activation domain activity
MIHLLQYAYLFLFLLMLYDTLCHAILFFLTLNLTNWWYPIPFNMILHFIVPLF	45300
LCIDDKYILIYGQEDSNHKVTVRKVTLQLFMCLINYTVRNILWWSLSGLITGF	38400
AHVTMPYLLAIACHTAGIICMWICYCACLVWCSTVLPILLIIIIILIVFLNAN	25200
TLGFVVDRYFRVKNFVPEPFWTIKVMHHKDGKKVNFNWARHRLFDRMSVIILY	64300
LMDSGGPDVRPPPKRARKAINCEPCRNSKLKCDRNRPCSSCVLRGTTSQCYQG	43700
LFLAGILRWGSRIVLVLFLLLLFRLSLLFCLGHLFFAYSLSTLGILLLLMIFF	31600
MAPETKNKKRKSGVTASSPSTKKLKKAEAPVAEEAPAPVKSTKKSKAAAPKAE	43300
EDDDERRRKESSSSSRRKDRDRDDDGHERKDRKDRKHGSHRDRETDREREKRK	33000
MIQTPLFYYLFYILFYFIFIFIYSLLGFFLIFYLFVLFSFHFCFPPPPPFSFF	46900
MWSFFFFLFFFGFCFLVFWPNLFFLFFFHDSCPFVLLLFLFHLFHLPVFPRSG	40300
MFFCYLTVILSMDAFYYYQSHLNWTSTQLYVTWFNACFRNGLIRIIYFVFWWL	76300
ITQRLGENIICAVCITYLHSLLLVTILDRSEGCLLQYSLRMHIASKFQPSHQF	51500
IGSYYGKHELYEEVRAQDKILYCTLVLPFVYFLMFLWIWYYLYCFRFFGFFYA	22000
ISVLLVPYAWAILLAFLLLPVFLCVICMDWTYIPFYLPFFPMIGVFSIVIPLF	21100
TSPAPASSANGPAPPRRKRQATTAACRACRKRKSKCDGARPTCSVCRDRKTKC	13100
PPPHLQLIYSCKAVRSSIQIFFDRAFIFKCSSSLWVCIVMFSRWLRTIRLFVW	85600
RVFTVPGKCFFDALAADSTDASCTEESLKKIWNELHTTSSEIEPWSNGYIDIS	98000
KASGSARESVDGEEDKEEAKEKNKENVKVEEKLDADEGEKESKVKAEAAKEPG	20300
REFRVVEEEEEEEEEEEEEEEEEEEEDEEEGGLGGESVEEGGRRDKGKGVVKE	20100
VCKHLKRQRISVDGSLKLISDMNHYFTYIETLKNNELLLYFKALRELSQIYLV	70700
KPKVKKDADDDAMDVDEEEKPKPKPKPRPKPKATSSPKEGEEDEPAKKKLKTS	51400
QTAVDNMNEQDLDGRNVRVNMANERPASSGGYGGGRGGGRGGFGGGRGRGGYG	29600
KQTAAQDSDEEGGGGKLKSKKEKEKEKKEREKQRKKEQAAKKKTAAPAPAKPE	24400
EGDRKGRGRGRGRDDRGPRDRNREREDRDEKNDKKRAREEGNDEKPAKNADSK	54500
YHTRNRLLLLCAQAHELAVLGVRELARCLRYLPKVHYMPVHWSTIFTWAEFCA	75600
CFSKCLDGHTLLLCTLYFLIINQKLLYCYVIVFFFWIWLSISLSYICVSELYY	57100
RYNHLFDETLVAICVLLGRIGGRFIVDDFEVMWCHNLFRTKVVKAIVVFALAY	39600

Sequence	transcriptional activation domain activity
TRQYIINILFGIMTVENFDLEDIIYFYMFIARNLPKYPQHIMLPGTSLHQVLV	54100
WRGRLVQRRSNDHEIDFVPYKTIYGGFWSHVNPSRLAVPRYLNIFRIIVWLFF	54400
RLHILVGFVTVAEVTNIVFITRSSWRILIGGVERPDLILIPPATSVGTPILNG	35000
NEEQTINLINYVLTCSNTVIRNTVFRNKVLNLLVSMILALKTPDYFIIFKIVV	74300
QSNWVEGFSTHHEPFRPHKRRIKSVIDCSERTAVLVADLIGGLPCVVELKPKW	64400
YMIGLLFRTYFKLKSLNLCKNVLRAVSVSELPSLSEFPKAHQVTFRYYTGVLS	70100
MSRVLPEKLPLHLQAACLPQRDLLTALPVVALRCYTDGPQLLRGLVCCLCDMW	61600
PAEGEAAAAPAAEESAAPAARTGSSSSSSSNEEKKKKAAKSKSRSVSRGKRTS	23200
DRMYNQISQVFDHLYARQDRTWGRVAEDFRSVLLIRWYFDAASLWVTLWCRYT	48600
LGFIEIVRVCPRFGILFLCMALSFISIVVDLLSVTPVIPIGVINPFWKFAFVF	58100
EDGRGSRRRKSRSRGREEEDSSSRRRKDRSRSRSVDKERKKRKRDKSEDRKAR	31800
MLWLVSWWLCLVVSNTLLFYLGEGGLVCFILCNSSFQVYLFLDLFIFLLFIHS	39800
KVAYRNPAADSEGWRRWGNDEARHGTLGVEEMERRIEALRKAKVGGGMVKVGF	35500
CYWKAKAPPYVLPMLILSKRLHSIFVLRCFNDCFAVLFLWLAILCLQRRSWQL	67900
GGPARRMKPGAPDARREEGGKKKRGATNDTGAAKEKAPAKGRKGKKKPAEESE	44500
IGKVTSAGLMSKTVRVDRPVQEWHNYLRKFYKSSKHYLVHDPANSLRTGDMIS	69800
MLCIWLLSLYVWFVQEKGAYKPVLSSSFFFWLILQVYVHRYWLPFPSLTFLYH	55500
SLPLPDTLPFPLPDSLHLPLTDDFSLTLQDALPFLYMDSLPFPLPMPFLFYFW	69600
MLSVRVVVLFAGHLCFLSSSYVLIRCFGDGFNSFVSFRFSSVWWWYLHTLCTH	87900
HKLKHVLAEHGARMSIHLGRRQVTHVILGRPAGGGGGAGGGLAGGKLQKEIQK	42500
LLNNELFQGPSLSDEVTDWFGASEDIGLEFVEPWTELIEQRYMQCGDGDNNNF	151000
RWIRVRKHMVLAATLVEPFTESVVLSIICASSLKYLFGVWLWISICVHFALWA	48100
RHICLILINIAVGLRFIFYAIDPYCIYNIFNPILNRLLFVTFYWIALLAYVLM	48100
GKGHYVTFSFVMADIILGMSAPMLRICVCHCVPQRQRKSNIILLQIILLFYER	54500
PWLLLIRYLALGTNLSMVVLTFGIFGLQWNRWISILTLRVYTMFNRKRVILWL	61100
RKSTSGKTEKADTEKPEKKKPANEGNTAAGTKGTGERKPAVKAGGGVKGRPSG	17800
VALDHLYLDEEQTHAIKSLSSLYIKVVIIFIKYLLVHRKIKQRLVRSWAYCYD	57900

Sequence	transcriptional activation domain activity
DIETLLVYDYYPKPLLDIDLTIRGRHIYLPIEKTWLRYVPKPPWYLLVLLFAG	60500
SREGKGGGAGRGKGGEQGGGMGEGKQGGGGGEAERGSREGKQRGEAGGRGKEE	44600
AASAEDAVVGEKHKAEEPLDTNGDAKKAKVTNGNGEARKPGRPSKKDKKPQPT	23100
RPSSAVVHAPRSKRAALRPSAPARCPPSSSSSSSPSTSPSCRRPASPTTSTCP	30700
DFWDYLIVSLVPSLCVFFVRYFMFMVLFIVVGYFIPLLMCYMSYSIIRYPLFH	43400
SSVVLFVFFLLFLLFSLFFYPTWLLPCLIFLLNDYLLFFLLFFCRVSCSFAPL	45800
MLVRCPHLILNHKMPVLYLLFYLHIFHSLLLPFCIYASFFSFILFYQIGIFLL	48400
MVLLTFSLICNSCATVLELSEHLPVPWDVFCQHMCVRFLLPLLRVAAHALTSA	43000
MEGLVVCSVWIFSCVWSLWLALCIWIFCLFVGVWLVRIWRGPGLYLLFFFFFL	71000
RGRRKWNWTVVLYFACRVTTLAAAVTQMTGFNFTSEISCKTWLILTRIFTNTS	48200
NTLDVSEGNQVINESASTNTSSALNCQSYTNNQDIMDILFQVTSGSVWDEFFV	149000
HSLSTIGIDVSHWEPFPLASMQRALAYELHMFCPTLRTVIVWLRRYRYMWRWS	45200
AVGYIWYIPFYHYNYSILRAGMMTNFFWASLCLVYSNIRPYSEIGIVYLLLCP	69800
MVGLVGFWVLFLFFLCPFLFSCPLPLPPLRPSLYIFQISYGSFFSCFSFLFFS	63800
IFLACCAVFPGLGNLGFTLMQYRLGQRSFLSAAAENLTWVPFFFFFFGGLSVH	78400
STPAPTTAAGGKKEAEKPEEKSEEKPEEKPAEKPAEKPAEKPAEVKPEEKAIQ	25400
DSGGDRSTSPDSDRDKENKKASDKTEDSDKETQENGEEEKGGEKERESKKGEK	16700
MKHETLFFLFCRSLTRFFPMFGASFFFVLFLDLFVFVFCVVYGYSRFIFFLFV	50300
QFSWNVCFMVFLFLFLFLFLCFVCFTLLCLSKMLHNVLHYNFILCFLSSFCFV	52400
RDALSGDPTAPRKRSKVSRACDECRRKKIRCDASSESGIEQCSSCKRVGSKCS	43500
TSAFGQTNNAASPFGGTSNTAAGGFGSPATGGFGTNTAGGAFGSKPAFGATTT	38300
LYAWLSFFWVLVYVYFFSITVYLVVKGSRSILDLSHGSPSPLLTGSLFACLVW	58700
FYAALYPFKGIFFFIGHPFLYPLARARLIPAFLLSAFVLLNLFFWTYLPQVAF	34300
CDAGILLCLVCYLSSKLIYLFLVEKVFIIRGNRQRWTDKLFLFNMFGMLLPYC	51600
MRLNICKDLWIHSAFRMLSDISAASLFLVSRSYFIIIFTVASLGYTRMLSLYH	51900
